The source of these data is the PETadex activity labels.

To fix the notation:
B1: unnamed (protein)
chain: MDKTRLFSTLSMVTSALLFSISVSAGKPSKGGDEPAPEPAACISDTDITSAALSSTGSSGPFTVSTKDVSRWSASGFGGGTIHYPTGAGDCGPIGGIAVVPGYVSYEASIKWWGPRLASWGFVVITINTNSIYDQPDSRATQLSAALDHIINDSTVGSMVDSSRLGAIGWSMGGGGALKLATDRSEVKAIIPQAPWYSGRYGRMKTPAFMIGCENDFVAPTSNHVDVFYANASGPKMKIEVNNGDHSCANSGYNETLLGKPGIAWMQRYIHGDTRFNQFLCGNENYGSSNSVSAYDFESC
B2: unnamed (protein)
chain: MNFPRASRLMQAAVLGGLMAVSAAATAQTNPYARGPNPTAASLEASAGPFTVRSFTVSRPSGYGAGTVYYPTNAGGTVGAIAIVPGYTARQSSIKWWGPRLASHGFVVITIDTNSTLDQPSSRSSQQMAALRQVASLNGTSSSPIYGKVDTARMGVMGWSMGGGGSLISAANNPSLKAAAPQAPWDSSTNFSSVTVPTLIFACENDSIAPVNSSALPIYDSMSRNAKQFLEINGGSHSCANSGNSNQALIGKKGVAWMKRFMDNDTRYSTFACENPNSTRVSDFRTANCS
B3: unnamed (protein)
chain: MLALRTSFPRVLTRLLAASLATGLVAQAQAAGHERGPAPTAASLEAEAGPFQVASTVLGAPVGYKGGTVFYPKGPGPFALVAFAPGFIETQSWNAWWAKYLASHGFVVVNIDTKSTLAFPPARQREQLAALKDVIQRSHTRGTPFYGLVDATRLGAMGHSMGGGATLELARDTPHIKAIVPMAPFQTTGTDYSRLTVPTLILTCKGDIVASAKSHAAPIYDSLPSSLDKAHVELAGGGGHPCTTSLGTSAEVKKVAAKYGVSWLKRFLDEDTRYSPFLCGAEHEASLKTSVVSAYQGNCP
B4: unnamed (protein)
chain: MANPYERGPNPTDALLEASSGPFSVSEENVSRLSASGFGGGTIYYPRENNTYGAVAISPGYTGTEASIAWLGERIASHGFVVITIDTITTLDQPDSRAEQLNAALNHMINRASSTVRSRIDSSRLAVMGHSMGGGGTLRLASQRPDLKAAIPLTPWHLNKNWSSVTVPTLIIGADLDTIAPVATHAKPFYNSLPSSISKAYLELDGATHFAPNIPNKIIGKYSVAWLKRFVDNDTRYTQFLCPGPRDGLFGEVEEYRSTCPF
B5: unnamed (protein)
chain: MNNNKMPKSALSLLVAGALFLSATAMAANPVPPPTNPGNPDSGYQRGPNPSVSMLEARNGPFSVRTTNVSSFTSGFGGGTIHYPTNTTGTMAAIVVIPGFVSAESSIEWWGPKLASHGFVVMTIDTNSGFDQPPSRARQINAALDYLIDQNNARGSAVSGMIDPNRLGVVGWSMGGGGSLRVAAEGRLDAVIPLAPWDTTNFRSVNTPALIFACESDTIAPVRSHASPFYNQIPASTPKAFVEISRGSHYCANGGGSNDAVLSRLGVSWMKVHLDKDQRYQQFICGPRHESDRSISEYRGN
B6: unnamed (protein)
chain: MKIVPPKPFFFEAGERAVLLLHGFTGNSADVRMLGRFLESKGYTCHAPIYKGHGVPPEELVHTGPDDWWQDVMNGYEFLKNKGYEKIAVAGLSLGGVFSLKLGYTVPIEGIVTMCAPMYIKSEETMYEGVLEYAREYKKREGKSEEQIEQEMEKFKQTPMKTLKALQELIADVRDHLDLIYAPTFVVQARHDEMINPDSANIIYNEIESPVKQIKWYEQSGHVITLDQEKDQLHEDIYAFLESLDW
B7: unnamed (protein)
chain: MERTVVETRYGRLRGEMNEGVFVWKGIPYAKAPVGERRFLPPEPPDAWDGVREATSFGPVVMQPSDPIFSGLLGRMSEAPSEDGLYLNIWSPAADGKKRPVLFWIHGGAFLFGSGSSPWYDGTAFAKHGDVVVVTINYRMNVFGFLHLGDSFGEAYAQAGNLGILDQVAALRWVKENIAAFGGDPDNITIFGESAGAASVGVLLSLPEASGLFRRAMLQSGSGSLLLRSPETAMAMTERILDKAGIRPGDRERLLSIPAEELLRAALSLGPGVMYGPVVDGRVLRRHPIEALRYGAASGIPILIGVTKDEYNLFTLTDPSWTKLGEKELLDRINREVGPVPEEAIRYYKETAEPSAPTWQTWLRIMTYRVFVEGMLRTADAQAAQGADVYMYRFDYETPVFGGQLKACHALELPFVFHNLHQPGVANFVGNRPEREAIANEMHYAWLSFARTGDPNGAHLPEAWPAYTNERKAAFVFSAASHVEDDPFGRERAAWQGR
B8: unnamed (protein)
chain: MTVCKLRMFTAQKHPVTNKIFGGSSMSSRKQDLRLRQLLYCLLLSTALGGAVVHAQTAPATIAQEAFNNGFGIFTAAGSATANGQAVLAGTFGGTDGSITSSPISTQGFSNITVSFDRTTVGLDNGEAGVAEFSVAGGAFTAIESAQTASGRMSFALAASAANQAQLRLRFRVVASRANETYSVDNVLVQGVAAGAQPPPPDPQPTNNPFQRGPTPSAATLEAAQGPFAVATTTVPNPSGFGAGTIYFPTSTTEGPFAAVSIAPGFSERQANVNWWGPRLASNGFVVVVIDTNSTSDAPASRATQLVAALRQVVTLSGTSGSPVFNKVDGNRLGVMGHSLGGGGTLIAAQNNPTLKAAIPFAPFNNDTNFSSVVVPTLIIACENDNVAPVADHASPFYNSFAASLDKAFLEIAGGSHSCANSGNNNMPILGKYGVSWMKLFMDNDTRYSPFLCGAPHQADLSGTQISEYRESCP

Substrate in the first data set: BHET
The conditions noted are these: 120 h; part of the chain shown.
Regarding B1, the plate clearing result is “not clears the plate”.

For the protein B2, the plate clearing entry was “clears the plate (z > 3 vs empty vector)”.

On to B3, for which the plate clearing entry is “not clears the plate”.

For the protein B4, the plate clearing entry was “clears the plate (z > 3 vs empty vector)”.

Take B5: the plate clearing entry was “not clears the plate”.

With B8, the plate clearing entry is “clears the plate (z > 3 vs empty vector)”.

Substrate in the next data set: p-NP-C6
The conditions noted are these: pH 8.5; 60 °C; part of the chain shown.
B6: the Michaelis constant (Km) is 2.16 µM, the catalytic constant (kcat) was found to be 38 s⁻¹ and the kcat/Km was determined as 1.76e+07 s⁻¹ M⁻¹.

The data set is the same for the next values; noted with them: pH 8.5; 60 °C.
For B7, the Km came to 0.5 µM, the kcat worked out at 39.8 s⁻¹ and the kcat/Km came out at 7.95e+07 s⁻¹ M⁻¹.

One may read the Km as the concentration of substrate that gives half-maximal velocity. The term kcat denotes the maximal rate divided by the concentration of active sites. As a reminder, the kcat/Km is the turnover number divided by the Michaelis constant.
